Experimental data reported in patent US20060099650A1 (UNIVERSITY OF MASSACHUSETTS, published 2006).

Molecular target: T1, TLR4:Fc fusion protein (UniProt O00206 24-631)
T1 construct: The composition is not described beyond 'the related TLR4:Fc'; also called the TLR4 fusion protein; not shown: Fc part; not described for TLR4:Fc (only 'related' to TLR2:Fc, which carries mouse IgG2a Fc)
Assay: ELISA, Fc fusion plated on plastic, biotinylated ligand as probe, anti-biotin-HRP detection

T1 sequence (O00206 24-631 limits assumed): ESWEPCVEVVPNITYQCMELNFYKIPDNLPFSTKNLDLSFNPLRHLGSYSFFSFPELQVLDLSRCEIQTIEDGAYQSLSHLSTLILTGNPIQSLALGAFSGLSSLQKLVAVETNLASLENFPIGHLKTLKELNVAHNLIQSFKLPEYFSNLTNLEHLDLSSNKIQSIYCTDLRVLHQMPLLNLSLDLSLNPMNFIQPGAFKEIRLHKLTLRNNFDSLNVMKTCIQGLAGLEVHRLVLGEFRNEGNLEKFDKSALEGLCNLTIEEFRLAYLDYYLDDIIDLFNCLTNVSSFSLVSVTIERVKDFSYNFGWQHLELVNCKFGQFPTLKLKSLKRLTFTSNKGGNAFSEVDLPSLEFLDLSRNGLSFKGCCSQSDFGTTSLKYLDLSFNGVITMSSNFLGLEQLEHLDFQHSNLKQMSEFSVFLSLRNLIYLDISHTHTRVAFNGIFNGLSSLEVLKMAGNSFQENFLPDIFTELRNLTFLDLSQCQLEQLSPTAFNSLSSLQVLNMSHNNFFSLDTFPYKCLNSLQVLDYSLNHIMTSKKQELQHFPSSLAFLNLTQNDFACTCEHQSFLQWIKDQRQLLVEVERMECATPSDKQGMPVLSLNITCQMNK

B1: PorinB from Neisseria meningitidis (ligand)
chain: DVTLYGTIKAGVETSRSVFHQNGQVTEVTTATGIVDLGSKIGFKGQEDLGNGLKAIWQVEQKASIAGTDSGWGNRQSFIGLKGGFGKLRVGRLNSVLKDTGDINPWDSKSDYLGVNKIAEPEARLISVRYDSPEFAGLSGSVQYALNDNAGRHNSESYHAGFNYKNGGFFVQYGGAYKRHHQVQEGLNIEKYQIHRLVSGYDNDALYASVAVQQQDAKLTDASNSHNSQTEVAATLAYRFGNVTPRVSYAHGFKGLVDDADIGNEYDQVVVGAEYDFSKRTSALVSAGWLQEGKGENKFVATAGGVGLRHKF
modifications: biotinylated in the binding assays (sites not given); not stated as biotinylated in the reporter assay
notes: also called biotinylated PorinB; biotinylated Porin
**Q.** Does B1 bind?
**A.** no binding
